One may read the Kd as the free concentration of one partner at which half of the binding sites on the other are occupied at equilibrium, for simple one-to-one binding.

For assay [1], the target named is Human polymeric immunoglobulin receptor (human) (UniProt P01833). Put plainly: SPR (Biacore).
The target in assay [2] is T1, Mouse polymeric immunoglobulin receptor (mouse) (UniProt O70570).
T1 sequence (looked up): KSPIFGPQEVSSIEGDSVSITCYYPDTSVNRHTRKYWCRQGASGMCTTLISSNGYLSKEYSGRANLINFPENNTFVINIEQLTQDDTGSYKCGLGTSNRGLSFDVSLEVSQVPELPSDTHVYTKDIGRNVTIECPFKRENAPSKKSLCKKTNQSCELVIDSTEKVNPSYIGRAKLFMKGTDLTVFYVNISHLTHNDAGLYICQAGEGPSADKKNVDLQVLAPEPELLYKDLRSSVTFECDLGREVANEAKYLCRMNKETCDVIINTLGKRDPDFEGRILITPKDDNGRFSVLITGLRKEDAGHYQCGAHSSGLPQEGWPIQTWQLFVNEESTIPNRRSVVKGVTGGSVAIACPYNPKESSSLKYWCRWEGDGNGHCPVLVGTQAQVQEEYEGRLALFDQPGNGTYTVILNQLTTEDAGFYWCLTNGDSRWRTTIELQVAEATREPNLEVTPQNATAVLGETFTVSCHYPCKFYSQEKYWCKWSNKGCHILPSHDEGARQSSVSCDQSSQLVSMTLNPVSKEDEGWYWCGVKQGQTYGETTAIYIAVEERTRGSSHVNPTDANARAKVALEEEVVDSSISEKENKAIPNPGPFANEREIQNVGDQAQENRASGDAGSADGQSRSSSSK
Put plainly: SPR (Biacore). Background: In SPR one partner is held on a chip, and binding of the other changes the refractive index at the surface.

Assay [3] deals with T1, Mouse polymeric immunoglobulin receptor (mouse). Nature of the assay: SPR (Biacore); panel shown again on D00107.
Assay [4] has as its target Human FcαRI (human) (UniProt P24071). Nature of the assay: Wasatch array SPR, antibody immobilised, n>=3.
Sequence of UniProt P24071 (P24071 22-227 limits assumed): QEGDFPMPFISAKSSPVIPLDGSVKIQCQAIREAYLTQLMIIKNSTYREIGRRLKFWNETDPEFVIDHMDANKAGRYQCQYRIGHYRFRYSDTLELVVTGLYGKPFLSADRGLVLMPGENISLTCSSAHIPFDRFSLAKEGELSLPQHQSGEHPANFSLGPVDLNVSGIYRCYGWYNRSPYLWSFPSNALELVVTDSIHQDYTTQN

Sequence of UniProt P01833 (P01833 19-638 limits assumed): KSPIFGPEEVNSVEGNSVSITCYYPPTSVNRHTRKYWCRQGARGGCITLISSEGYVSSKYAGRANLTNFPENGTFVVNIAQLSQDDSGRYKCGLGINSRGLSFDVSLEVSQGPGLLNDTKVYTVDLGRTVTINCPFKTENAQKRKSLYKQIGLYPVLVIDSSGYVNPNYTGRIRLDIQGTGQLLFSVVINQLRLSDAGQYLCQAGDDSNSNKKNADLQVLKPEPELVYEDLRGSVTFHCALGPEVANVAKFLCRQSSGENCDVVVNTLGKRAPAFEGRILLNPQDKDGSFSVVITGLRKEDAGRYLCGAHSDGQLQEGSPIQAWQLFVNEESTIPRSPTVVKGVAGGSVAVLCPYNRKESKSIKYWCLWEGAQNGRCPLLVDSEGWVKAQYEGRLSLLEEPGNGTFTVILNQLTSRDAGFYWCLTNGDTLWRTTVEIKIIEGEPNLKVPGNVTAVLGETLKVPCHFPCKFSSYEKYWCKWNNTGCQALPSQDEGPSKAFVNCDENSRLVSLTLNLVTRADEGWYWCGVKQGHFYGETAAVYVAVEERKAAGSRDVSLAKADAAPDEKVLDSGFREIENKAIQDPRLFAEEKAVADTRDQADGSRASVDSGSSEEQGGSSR

With Glycosylated IgA2m2.Fc only Tetramer, the Kd came out at 0.98 nM in assay [1], 0.79 nM in assay [2] and 0.79 nM in assay [3].

In turn, Human serum IgA monomer (antibody) gave a Kd in assay [4] of 1750 nM.

These data come from patent publication US20220048990A1.
